Patent US20180057604A1 (Genentech, published 2018)
Changes are numbered by the printed parent chain. Names and notes keep the numbering of the source.

T1: cyno TfR extracellular domain (analogous construct to human TfR ecd) (cynomolgus monkey, UniProt Q5RDH6 87-760 (Pongo abelii entry))
T1 construct: also called cynoTfR ecd
T1 chain: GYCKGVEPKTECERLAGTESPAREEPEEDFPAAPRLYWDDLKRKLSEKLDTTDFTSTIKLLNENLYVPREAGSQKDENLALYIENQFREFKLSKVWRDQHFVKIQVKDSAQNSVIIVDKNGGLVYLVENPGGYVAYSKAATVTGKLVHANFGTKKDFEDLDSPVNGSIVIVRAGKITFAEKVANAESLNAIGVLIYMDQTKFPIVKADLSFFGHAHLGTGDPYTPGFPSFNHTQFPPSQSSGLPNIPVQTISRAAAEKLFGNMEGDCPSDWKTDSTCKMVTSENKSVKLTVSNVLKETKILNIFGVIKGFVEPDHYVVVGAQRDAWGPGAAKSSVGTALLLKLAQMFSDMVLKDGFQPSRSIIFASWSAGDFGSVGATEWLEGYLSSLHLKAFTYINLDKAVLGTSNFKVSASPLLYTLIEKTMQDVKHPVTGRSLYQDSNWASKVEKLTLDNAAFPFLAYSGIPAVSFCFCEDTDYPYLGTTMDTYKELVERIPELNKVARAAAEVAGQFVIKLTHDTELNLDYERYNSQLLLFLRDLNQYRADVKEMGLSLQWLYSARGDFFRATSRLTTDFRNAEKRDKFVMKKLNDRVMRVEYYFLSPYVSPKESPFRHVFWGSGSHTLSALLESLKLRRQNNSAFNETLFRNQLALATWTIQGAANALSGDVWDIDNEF

B1: 5543 (antibody, V domains shown)
VH: QLQLQESGPGLVKPSETLSLTCTVSGGSISSSSYYWGWIRQPPGKGLEWIGSIYYSGSTYYNPSLKSRVTISVDTSKNQFSLKLSSVTAADTAVYYCARVGHGISYFDLWGRGTLVTVSS
VL: EIVLTQSPATLSLSPGERATLSCRASQSVSSYLAWYQQKPGQAPRLLIYDASNRATGIPARFSGSGSGTDFTLTISSLEPEDFAVYYCQQAYVWPPRTFGGGTKVEIK
B2: 5643 (antibody, V domains shown)
VH: B1 VH
VL: B1 VL with A91S, Y92L, V93T
B3: 5902 (antibody, V domains shown)
VH: B1 VH with Y55R, Y60W
VL: B1 VL with N53K, A91V, V93T
B4: 6266wt (Fab, V domains shown)
VH: QVQLVQSGAEVKKPGSSVKVSCKASGGTLSGYGVSWVRQAPGQGLEWMGNIIPGFGTANYAQKFQGRVTITADESTSTAYMELSSLRSEDTAVYYCARSGGTKYGMLDVWGQGTMVTVSS
VL: EIVMTQSPATLSVSPGERATLSCRASQSVSSNLAWYQQKPGQAPRLLIYGASTRATGIPARFSGSGSGTEFTLTISSLQSEDFAVYYCQQLILWPPRTFGGGTKVEIK
notes: also called ADI6266
B5: 6266.8 Fab (Fab, V domains shown)
VH: B4 VH with S30K, S99G
VL: B4 VL with T56Y
notes: not tied singly
B6: 6266.15 Fab (Fab, V domains shown)
VH: B4 VH with M106E
VL: B4 VL
B7: 6266.5 Fab (Fab, V domains shown)
VH: B4 VH with G31H, F55I, K103Q
VL: B4 VL with T53K, F83A
B8: 6266.1 Fab (Fab, V domains shown)
VH: B4 VH with G31H, F55I
VL: B4 VL
notes: not tied singly
B9: 6266.12 Fab (Fab, V domains shown)
VH: B4 VH with S30N
VL: B4 VL
B10: 6266.2 Fab (Fab, V domains shown)
VH: B4 VH with G31H, F55I
VL: B4 VL with T53K, F83A
B11: 6266.3 Fab (Fab, V domains shown)
VH: B4 VH with G31H, F55I
VL: B4 VL with T56Y
B12: 6266.10 Fab (Fab, V domains shown)
VH: B4 VH
VL: B4 VL with T53K
B13: 6266.7 Fab (Fab, V domains shown)
VH: B4 VH with G31H, F55I, M106E
VL: B4 VL with T56Y, F83A
B14: 6266.6 Fab (Fab, V domains shown)
VH: B4 VH with G31H, F55I, K103Q
VL: B4 VL with T56Y, F83A
B15: 6266.11 Fab (Fab, V domains shown)
VH: B4 VH
VL: B4 VL with T56Y
B16: 6266.9 Fab (Fab, V domains shown)
VH: B4 VH with S30K, S99G
VL: B4 VL with T53K
B17: 6266.13 Fab (Fab, V domains shown)
VH: B4 VH with V34M
VL: B4 VL
B18: 6266.4 Fab (Fab, V domains shown)
VH: B4 VH with G31H, F55I
VL: B4 VL with T53K
B19: 6266.14 Fab (Fab, V domains shown)
VH: B4 VH with T57V, Y104W
VL: B4 VL
B20: hu15G11.v5 IgG Ala variant D27A (HVR-L1) (antibody, V domains shown)
VH: EVQLVQSGAEVKKPGASVKVSCKASGYTFTSYWMHWVRQAPGQRLEWIGEINPTNGRTNYIEKFKSRATLTVDKSASTAYMELSSLRSEDTAVYYCARGTRAYHYWGQGTMVTVSS
VL: DIQMTQSPSSLSASVGDRVTITCRASANLYSNLAWYQQKPGKSPKLLVYDATNLADGVPSRFSGSGSGTDYTLTISSLQPEDFATYYCQHFWGTPLTFGQGTKVEIK
notes: IgG in cell culture supernatant
B21: hu15G11.v5 IgG Ala variant I51A (HVR-H2) (antibody, name in Kabat numbering, V domains shown)
VH: B20 VH with I51A
VL: B20 VL with A27D
notes: as for B20
B22: hu15G11.v5 IgG Ala variant K64A (HVR-H2) (antibody, name in Kabat numbering, V domains shown)
VH: B20 VH with K65A
VL: B20 VL with A27D
notes: IgG in cell culture supernatant; Kabat numbers after 52a lie one below the linear count
B23: hu15G11.v5 IgG Ala variant G26A (HVR-H1) (antibody, name in Kabat numbering, V domains shown)
VH: B20 VH with G26A
VL: B20 VL with A27D
notes: as for B20
B24: hu15G11.v5 IgG Ala variant E61A (HVR-H2) (antibody, name in Kabat numbering, V domains shown)
VH: B20 VH with E62A
VL: B20 VL with A27D
notes: as for B22
B25: hu15G11.v5 IgG Ala variant E50A (HVR-H2) (antibody, name in Kabat numbering, V domains shown)
VH: B20 VH with E50A
VL: B20 VL with A27D
notes: as for B20
B26: hu15G11.v5 IgG Ala variant I60A (HVR-H2) (antibody, name in Kabat numbering, V domains shown)
VH: B20 VH with I61A
VL: B20 VL with A27D
notes: as for B22
B27: hu15G11.v5 IgG Ala variant F63A (HVR-H2) (antibody, name in Kabat numbering, V domains shown)
VH: B20 VH with F64A
VL: B20 VL with A27D
notes: as for B22
B28: hu15G11.v5 IgG Ala variant D56A (HVR-L2) (antibody, V domains shown)
VH: B20 VH
VL: B20 VL with A27D, D56A
notes: as for B20
B29: hu15G11.v5 IgG Ala variant K62A (HVR-H2) (antibody, name in Kabat numbering, V domains shown)
VH: B20 VH with K63A
VL: B20 VL with A27D
notes: as for B22
B30: hu15G11.v5 IgG Ala variant G49A (HVR-H2) (antibody, name in Kabat numbering, V domains shown)
VH: B20 VH with G49A
VL: B20 VL with A27D
notes: as for B20
B31: hu15G11.v5 IgG Ala variant D50A (HVR-L2) (antibody, V domains shown)
VH: B20 VH
VL: B20 VL with A27D, D50A
notes: as for B20
B32: hu15G11.v5 IgG Ala variant F29A (HVR-H1) (antibody, name in Kabat numbering, V domains shown)
VH: B20 VH with F29A
VL: B20 VL with A27D
notes: as for B20

Target: BACE1 in primary mouse cortical neurons (mouse, UniProt P56818 46-501)
Sequence (P56818 46-501): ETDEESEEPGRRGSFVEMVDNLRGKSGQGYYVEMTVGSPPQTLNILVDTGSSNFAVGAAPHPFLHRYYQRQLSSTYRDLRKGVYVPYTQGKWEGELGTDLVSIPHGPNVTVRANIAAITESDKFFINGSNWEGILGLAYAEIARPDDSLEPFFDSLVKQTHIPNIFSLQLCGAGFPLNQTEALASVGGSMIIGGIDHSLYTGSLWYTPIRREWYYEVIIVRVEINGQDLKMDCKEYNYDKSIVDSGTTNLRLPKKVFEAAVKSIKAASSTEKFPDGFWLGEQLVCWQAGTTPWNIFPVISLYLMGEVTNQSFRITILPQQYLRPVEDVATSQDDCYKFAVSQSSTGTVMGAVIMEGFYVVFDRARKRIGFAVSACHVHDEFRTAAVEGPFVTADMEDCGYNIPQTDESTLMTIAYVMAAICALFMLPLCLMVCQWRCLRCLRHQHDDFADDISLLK
Assay: cell-based or functional assay

Binder | IC50, Abeta x-40 in mouse cortical neurons [pM] | maximal % inhibition of Abeta x-40 [%]
B1 | 18300 | 65
B2 | 9710 | 60
B3 | 1590 | 67

Target: His-tagged BACE1 protein (Example 15) (Homo sapiens (Human), UniProt P56817 22-457)
Sequence (P56817 22-457 limits assumed): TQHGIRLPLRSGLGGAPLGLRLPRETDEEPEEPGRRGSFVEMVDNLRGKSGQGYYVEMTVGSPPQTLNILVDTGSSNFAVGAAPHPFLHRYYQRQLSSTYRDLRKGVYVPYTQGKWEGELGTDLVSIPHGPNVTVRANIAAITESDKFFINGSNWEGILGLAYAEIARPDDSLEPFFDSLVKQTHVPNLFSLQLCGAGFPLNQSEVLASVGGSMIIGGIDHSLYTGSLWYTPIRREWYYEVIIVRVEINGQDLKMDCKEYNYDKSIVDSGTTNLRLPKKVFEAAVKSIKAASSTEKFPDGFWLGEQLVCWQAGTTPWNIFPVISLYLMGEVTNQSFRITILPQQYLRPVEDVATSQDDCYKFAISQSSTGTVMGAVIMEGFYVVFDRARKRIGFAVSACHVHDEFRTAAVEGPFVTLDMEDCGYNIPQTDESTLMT
Assay: SPR (Biacore T200), Fab on captured His-BACE1;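 note: Single-cycle kinetics with serially diluted Fab flowed over BACE1 captured by anti-His antibody on a CM5 chip, rates fitted to a one-to-one Langmuir model, Kd derived as koff over kon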

Binder | Kd [pM] | koff [s⁻¹] | kon [M⁻¹ s⁻¹]
B4 | 1090 | 0.000403 | 371000
B5 | 560 | 0.000275 | 488000
B6 | 640 | 0.000495 | 774000
B7 | 530 | 0.000228 | 428000
B8 | 240 | 0.000161 | 654000
B9 | 520 | 0.000447 | 854000
B10 | 580 | 0.000142 | 245000
B11 | 290 | 0.000142 | 480000
B12 | 690 | 0.000506 | 756000
B13 | 620 | 0.000333 | 542000
B14 | 780 | 0.000278 | 356000
B15 | 460 | 0.00041 | 891000
B16 | 680 | 0.000305 | 445000
B17 | 560 | 0.000411 | 734000
B18 | 260 | 0.00017 | 638000
B19 | 570 | 0.000474 | 839000

Target: BACE1 (HTRF long substrate and FRET short substrate assays of Example 9D)
Assay: cell-based or functional assay

Binder | EC50, FRET short substrate [pM] | EC50, HTRF long substrate [pM]
B1 | 9110 | 30000
B2 | 1410 | 17700

Target: T1, cyno TfR extracellular domain …
Assay: ELISA, TfR-coated plate, IgG in culture supernatant;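 note: human or cynomolgus TfR coated at 2 µg/mL, supernatant IgG titrated in 1:5 steps for 1 h, bound antibody read with HRP anti-human Fcγ and TMB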

Binder | EC50 [ng/mL]
B20 | 0.8
B21 | 0.6
B22 | 0.6
B23 | 6.1
B24 | 0.6
B25 | 410
B26 | 0.7
B27 | 0.6
B28 | 0.5
B29 | 0.7
B30 | 1.1
B31 | 0.5

Target: T2, human TfR extracellular domain with N-terminal His tag (human, UniProt P02786 89-760)
T2 construct: Biotinylated in some assays; also called huTfR; HuTfR
T2 sequence (P02786 89-760 G142S): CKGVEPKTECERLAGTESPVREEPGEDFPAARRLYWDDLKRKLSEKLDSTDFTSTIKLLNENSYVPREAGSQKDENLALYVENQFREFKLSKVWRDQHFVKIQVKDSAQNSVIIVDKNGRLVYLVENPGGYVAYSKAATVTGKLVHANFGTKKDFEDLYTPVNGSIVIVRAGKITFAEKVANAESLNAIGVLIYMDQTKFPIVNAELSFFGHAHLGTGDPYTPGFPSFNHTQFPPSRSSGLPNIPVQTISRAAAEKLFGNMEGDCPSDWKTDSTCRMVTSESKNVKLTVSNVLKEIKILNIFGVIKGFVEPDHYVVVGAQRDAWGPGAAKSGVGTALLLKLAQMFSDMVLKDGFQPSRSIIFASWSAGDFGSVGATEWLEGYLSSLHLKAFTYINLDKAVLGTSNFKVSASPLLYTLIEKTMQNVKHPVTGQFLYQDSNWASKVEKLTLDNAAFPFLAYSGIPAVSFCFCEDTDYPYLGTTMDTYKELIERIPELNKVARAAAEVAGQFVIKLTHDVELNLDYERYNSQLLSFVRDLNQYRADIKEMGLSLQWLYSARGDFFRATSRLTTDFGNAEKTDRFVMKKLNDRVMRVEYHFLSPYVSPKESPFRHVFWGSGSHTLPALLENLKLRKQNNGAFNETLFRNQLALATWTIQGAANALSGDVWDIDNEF
Assay: as above

Binder | EC50 [ng/mL]
B20 | 0.2
B21 | 0.2
B22 | 0.3
B23 | 1.1
B24 | 0.2
B26 | 0.3
B27 | 0.4
B28 | 0.3
B29 | 0.3
B30 | 0.3
B32 | 1.5
B31 | 0.2
